Measurements taken from US20240383992A1 (ORICELL THERAPEUTICS, published 2024).

T1: BCMA expressed on MM1s cells (UniProt Q02223 1-184, limits assumed)
T1 sequence (looked up): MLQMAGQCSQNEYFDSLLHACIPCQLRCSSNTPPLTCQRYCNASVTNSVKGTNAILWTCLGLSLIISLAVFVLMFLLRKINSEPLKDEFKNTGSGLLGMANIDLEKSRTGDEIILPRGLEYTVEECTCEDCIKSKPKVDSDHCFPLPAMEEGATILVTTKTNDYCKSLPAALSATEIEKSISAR


Target: T1, BCMA expressed on MM1s cells
Assay: cell-based or functional assay

| Binder | killing toxicity against the target cell at effector-to-target ratio 1:1 | killing toxicity against the target cell at effector-to-target ratio 3:1 |
| --- | --- | --- |
| hBCMA-17 CAR (other) EIVLTQSPATLSLSPGERATLSCRASESVSVSGIHLLHWYQQKPGQAPRLLIYLGRNRAAGIPARFSGSGSGTDFTLTISSLEPEDAAIYYCLQSRRFPRHFGQGTKLEIKGSTSGSGKPGSGEGSTKGQVQLVQSGAEVKKPGASVKVSCKASGYTFADYTINWVRQATGQGLEWMGWINTETREPTYAYDFRSRFTFTLNTSISTAYLELSSLRSEDTAVYYCARDIRYVMDYWGQGTLVTVSSTTTPAPRPPTPAPTIASQPLSLRPEACRPAAGGAVHTRGLDFACDIYIWAPLAGTCGVLLLSLVITLYCKRGRKKLLYIFKQPFMRPVQTTQEEDGCSCRFPEEEEGGCELRVKFSRSADAPAYQQGQNQLYNELNLGRREEYDVLDKRRGRDPEMGGKPRRKNPQEGLYNELQKDKMAEAYSEIGMKGERRRGKGHDGLYQGLSTATKDTYDALHMQALPPR | > 20% | > 70% |
| hBCMA-20 CAR (other) EIVLTQSPATLSLSPGERATLSCRASESVSVPGISFIHWYQQKPGQAPRLLIYLGRNRAAGIPARFSGSGSGTDFTLTISSLEPEDAAIYYCLQSRRFPRHFGQGTKLEIKGSTSGSGKPGSGEGSTKGQVQLVQSGAEVKKPGASVKVSCKASGYTFADYTINWVRQATGQGLEWMGWINTETREPTYAYDFRSRFTFTLNTSISTAYLELSSLRSEDTAVYYCARDIRYVMDYWGQGTLVTVSSTTTPAPRPPTPAPTIASQPLSLRPEACRPAAGGAVHTRGLDFACDIYIWAPLAGTCGVLLLSLVITLYCKRGRKKLLYIFKQPFMRPVQTTQEEDGCSCRFPEEEEGGCELRVKFSRSADAPAYQQGQNQLYNELNLGRREEYDVLDKRRGRDPEMGGKPRRKNPQEGLYNELQKDKMAEAYSEIGMKGERRRGKGHDGLYQGLSTATKDTYDALHMQALPPR | > 20% | > 70% |
| hBCMA-23 CAR (other) EIVLTQSPATLSLSPGERATLSCRASESVSVPGISFIHWYQQKPGQAPRLLIYLGSNRPSGIPARFSGSGSGTDFTLTISSLEPEDAAIYYCLQSRRFPRHFGQGTKLEIKGSTSGSGKPGSGEGSTKGQVQLVQSGAEVKKPGASVKVSCKASGYTFADYTINWVRQATGQGLEWMGWINTETREPTYAYDFRSRFTFTLNTSISTAYLELSSLRSEDTAVYYCARDIRYVMDYWGQGTLVTVSSTTTPAPRPPTPAPTIASQPLSLRPEACRPAAGGAVHTRGLDFACDIYIWAPLAGTCGVLLLSLVITLYCKRGRKKLLYIFKQPFMRPVQTTQEEDGCSCRFPEEEEGGCELRVKFSRSADAPAYQQGQNQLYNELNLGRREEYDVLDKRRGRDPEMGGKPRRKNPQEGLYNELQKDKMAEAYSEIGMKGERRRGKGHDGLYQGLSTATKDTYDALHMQALPPR | > 20% | > 70% |
| hBCMA-22 CAR (other) EIVLTQSPATLSLSPGERATLSCRASESVSVPGISFIHWYQQKPGQAPRLLIYLGSNRPSGIPARFSGSGSGTDFTLTISSLEPEDAAIYYCLQSRRFPRHFGQGTKLEIKGSTSGSGKPGSGEGSTKGQVQLVQSGAEVKKPGASVKVSCKASGYTFADYTINWVRQATGQGLEWMGWINTETREPAYAYDFRGRFTFTLNTSISTAYLELSSLRSEDTAVYYCARDIRYVMDYWGQGTLVTVSSTTTPAPRPPTPAPTIASQPLSLRPEACRPAAGGAVHTRGLDFACDIYIWAPLAGTCGVLLLSLVITLYCKRGRKKLLYIFKQPFMRPVQTTQEEDGCSCRFPEEEEGGCELRVKFSRSADAPAYQQGQNQLYNELNLGRREEYDVLDKRRGRDPEMGGKPRRKNPQEGLYNELQKDKMAEAYSEIGMKGERRRGKGHDGLYQGLSTATKDTYDALHMQALPPR | > 20% | > 70% |
| hBCMA-19 CAR (other) EIVLTQSPATLSLSPGERATLSCRASESVSVPGISFIHWYQQKPGQAPRLLIYLGRNRAAGIPARFSGSGSGTDFTLTISSLEPEDAAIYYCLQSRRFPRHFGQGTKLEIKGSTSGSGKPGSGEGSTKGQVQLVQSGAEVKKPGASVKVSCKASGYTFADYTINWVRQATGQGLEWMGWINTETREPAYAYDFRGRFTFTLNTSISTAYLELSSLRSEDTAVYYCARDIRYVMDYWGQGTLVTVSSTTTPAPRPPTPAPTIASQPLSLRPEACRPAAGGAVHTRGLDFACDIYIWAPLAGTCGVLLLSLVITLYCKRGRKKLLYIFKQPFMRPVQTTQEEDGCSCRFPEEEEGGCELRVKFSRSADAPAYQQGQNQLYNELNLGRREEYDVLDKRRGRDPEMGGKPRRKNPQEGLYNELQKDKMAEAYSEIGMKGERRRGKGHDGLYQGLSTATKDTYDALHMQALPPR | > 20% | > 70% |
